This is an account of results in patent US20050089871.

The series deals with D1 receptor of human renal proximal tubule cells (UniProt P21728).
Sequence of D1 receptor of human renal proximal tubule cells (P21728 whole entry): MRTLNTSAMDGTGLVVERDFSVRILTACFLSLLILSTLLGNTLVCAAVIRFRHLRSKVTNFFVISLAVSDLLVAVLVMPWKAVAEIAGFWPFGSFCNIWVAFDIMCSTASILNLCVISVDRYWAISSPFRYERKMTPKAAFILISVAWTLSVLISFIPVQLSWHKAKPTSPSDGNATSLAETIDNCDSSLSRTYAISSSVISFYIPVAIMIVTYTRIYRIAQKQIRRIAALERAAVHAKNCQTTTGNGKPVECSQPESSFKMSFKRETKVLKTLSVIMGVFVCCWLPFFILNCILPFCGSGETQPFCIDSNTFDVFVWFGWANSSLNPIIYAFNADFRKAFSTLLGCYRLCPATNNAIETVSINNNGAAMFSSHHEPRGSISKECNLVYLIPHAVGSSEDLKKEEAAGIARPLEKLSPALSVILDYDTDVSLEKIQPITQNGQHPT

As to “GRK4 of human renal proximal tubule cells”, the “serine phosphorylation of the D1 receptor (immunoprecipitation with anti D1 receptor antibody, anti-phosphoserine immunoblot) after GRK4 antisense treatment” value was “GRK4 antisense treatment almost completely abolished the phosphorylation of the D1 receptor in fenoldopam-treated renal proximal tubule cells from hypertensive subjects to levels that are lower than basal values”.
